Measurements as given in patent US20240279278A1, “NMU RECEPTOR 2 AGONISTS” (Boehringer Ingelheim International GmbH, priority 2023, published 2024).

T1: human neuromedin U receptor 1 (human, UniProt Q9HB89 24-426)
T1 sequence (looked up): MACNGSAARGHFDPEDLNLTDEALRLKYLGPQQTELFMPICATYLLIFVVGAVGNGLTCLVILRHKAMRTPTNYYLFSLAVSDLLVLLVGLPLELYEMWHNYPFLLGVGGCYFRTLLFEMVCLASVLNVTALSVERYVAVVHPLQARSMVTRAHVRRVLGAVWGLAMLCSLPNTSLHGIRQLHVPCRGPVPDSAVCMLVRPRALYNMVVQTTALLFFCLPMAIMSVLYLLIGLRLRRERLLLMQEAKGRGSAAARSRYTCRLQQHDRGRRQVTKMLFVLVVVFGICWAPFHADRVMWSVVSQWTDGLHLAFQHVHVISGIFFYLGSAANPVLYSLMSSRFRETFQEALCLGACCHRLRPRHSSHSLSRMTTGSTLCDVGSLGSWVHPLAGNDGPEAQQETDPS

B1: C20DA-gGlu3-Sar9-AEPipAc-Tyr-Phe-NMeLeu-Nle-Arg-Pro-Arg-Gly-NH2 (peptide)
peptide: EEEXXXXXXXXXXYFLXRPRG
HELM: PEPTIDE1{[O=C(O)CCCCCCCCCCCCCCCCCCC(=O)[*:2]].[gGlu].[gGlu].[gGlu].[Sar].[Sar].[Sar].[Sar].[Sar].[Sar].[Sar].[Sar].[Sar].[O=C(CN1CCN(CCN[*:1])CC1)[*:2]].Y.F.[meL].[Nle].R.P.R.G.[am]}$$$$V2.0
SMILES: CCCC[C@H](NC(=O)[C@H](CC(C)C)N(C)C(=O)[C@H](Cc1ccccc1)NC(=O)[C@H](Cc1ccc(O)cc1)NC(=O)CN1CCN(CCNC(=O)CN(C)C(=O)CN(C)C(=O)CN(C)C(=O)CN(C)C(=O)CN(C)C(=O)CN(C)C(=O)CN(C)C(=O)CN(C)C(=O)CN(C)C(=O)CC[C@H](NC(=O)CC[C@H](NC(=O)CC[C@H](NC(=O)CCCCCCCCCCCCCCCCCCC(=O)O)C(=O)O)C(=O)O)C(=O)O)CC1)C(=O)N[C@@H](CCCNC(=N)N)C(=O)N1CCC[C@H]1C(=O)N[C@@H](CCCNC(=N)N)C(=O)NCC(N)=O
B2: C18DA-gGlu3-Sar12-AEPipAc-Tyr-Phe-NMeLeu-Nle-Orn-Pro-Arg-Gly-NH2 (peptide)
peptide: EEEXXXXXXXXXXXXXYFLXXPRG
HELM: PEPTIDE1{[O=C(O)CCCCCCCCCCCCCCCCC(=O)[*:2]].[gGlu].[gGlu].[gGlu].[Sar].[Sar].[Sar].[Sar].[Sar].[Sar].[Sar].[Sar].[Sar].[Sar].[Sar].[Sar].[O=C(CN1CCN(CCN[*:1])CC1)[*:2]].Y.F.[meL].[Nle].[Orn].P.R.G.[am]}$$$$V2.0
SMILES: CCCC[C@H](NC(=O)[C@H](CC(C)C)N(C)C(=O)[C@H](Cc1ccccc1)NC(=O)[C@H](Cc1ccc(O)cc1)NC(=O)CN1CCN(CCNC(=O)CN(C)C(=O)CN(C)C(=O)CN(C)C(=O)CN(C)C(=O)CN(C)C(=O)CN(C)C(=O)CN(C)C(=O)CN(C)C(=O)CN(C)C(=O)CN(C)C(=O)CN(C)C(=O)CN(C)C(=O)CC[C@H](NC(=O)CC[C@H](NC(=O)CC[C@H](NC(=O)CCCCCCCCCCCCCCCCC(=O)O)C(=O)O)C(=O)O)C(=O)O)CC1)C(=O)N[C@@H](CCCN)C(=O)N1CCC[C@H]1C(=O)N[C@@H](CCCNC(=N)N)C(=O)NCC(N)=O
B3: C20DA-gGlu3-Sar12-AEPipAc-Tyr-Phe-NMeLeu-Nle-Dbu-Pro-Arg-Gly-NH2 (peptide)
peptide: EEEXXXXXXXXXXXXXYFLXXPRG
HELM: PEPTIDE1{[O=C(O)CCCCCCCCCCCCCCCCCCC(=O)[*:2]].[gGlu].[gGlu].[gGlu].[Sar].[Sar].[Sar].[Sar].[Sar].[Sar].[Sar].[Sar].[Sar].[Sar].[Sar].[Sar].[O=C(CN1CCN(CCN[*:1])CC1)[*:2]].Y.F.[meL].[Nle].[Dab].P.R.G.[am]}$$$$V2.0
SMILES: CCCC[C@H](NC(=O)[C@H](CC(C)C)N(C)C(=O)[C@H](Cc1ccccc1)NC(=O)[C@H](Cc1ccc(O)cc1)NC(=O)CN1CCN(CCNC(=O)CN(C)C(=O)CN(C)C(=O)CN(C)C(=O)CN(C)C(=O)CN(C)C(=O)CN(C)C(=O)CN(C)C(=O)CN(C)C(=O)CN(C)C(=O)CN(C)C(=O)CN(C)C(=O)CN(C)C(=O)CC[C@H](NC(=O)CC[C@H](NC(=O)CC[C@H](NC(=O)CCCCCCCCCCCCCCCCCCC(=O)O)C(=O)O)C(=O)O)C(=O)O)CC1)C(=O)N[C@@H](CCN)C(=O)N1CCC[C@H]1C(=O)N[C@@H](CCCNC(=N)N)C(=O)NCC(N)=O
B4: C20DA-gGlu3-Sar15-AEPipAc-Tyr-Phe-NMeLeu-Nle-Arg-Pro-Arg-Gly-NH2 (peptide)
peptide: EEEXXXXXXXXXXXXXXXXYFLXRPRG
HELM: PEPTIDE1{[O=C(O)CCCCCCCCCCCCCCCCCCC(=O)[*:2]].[gGlu].[gGlu].[gGlu].[Sar].[Sar].[Sar].[Sar].[Sar].[Sar].[Sar].[Sar].[Sar].[Sar].[Sar].[Sar].[Sar].[Sar].[Sar].[O=C(CN1CCN(CCN[*:1])CC1)[*:2]].Y.F.[meL].[Nle].R.P.R.G.[am]}$$$$V2.0
SMILES: CCCC[C@H](NC(=O)[C@H](CC(C)C)N(C)C(=O)[C@H](Cc1ccccc1)NC(=O)[C@H](Cc1ccc(O)cc1)NC(=O)CN1CCN(CCNC(=O)CN(C)C(=O)CN(C)C(=O)CN(C)C(=O)CN(C)C(=O)CN(C)C(=O)CN(C)C(=O)CN(C)C(=O)CN(C)C(=O)CN(C)C(=O)CN(C)C(=O)CN(C)C(=O)CN(C)C(=O)CN(C)C(=O)CN(C)C(=O)CN(C)C(=O)CC[C@H](NC(=O)CC[C@H](NC(=O)CC[C@H](NC(=O)CCCCCCCCCCCCCCCCCCC(=O)O)C(=O)O)C(=O)O)C(=O)O)CC1)C(=O)N[C@@H](CCCNC(=N)N)C(=O)N1CCC[C@H]1C(=O)N[C@@H](CCCNC(=N)N)C(=O)NCC(N)=O
B5: C20DA-gGlu3-Sar15-AEPipAc-Tyr-Phe-NMeLeu-Nle-Arg-NMeAla-Arg-Gly-NH2 (peptide)
peptide: EEEXXXXXXXXXXXXXXXXYFLXRARG
HELM: PEPTIDE1{[O=C(O)CCCCCCCCCCCCCCCCCCC(=O)[*:2]].[gGlu].[gGlu].[gGlu].[Sar].[Sar].[Sar].[Sar].[Sar].[Sar].[Sar].[Sar].[Sar].[Sar].[Sar].[Sar].[Sar].[Sar].[Sar].[O=C(CN1CCN(CCN[*:1])CC1)[*:2]].Y.F.[meL].[Nle].R.[meA].R.G.[am]}$$$$V2.0
SMILES: CCCC[C@H](NC(=O)[C@H](CC(C)C)N(C)C(=O)[C@H](Cc1ccccc1)NC(=O)[C@H](Cc1ccc(O)cc1)NC(=O)CN1CCN(CCNC(=O)CN(C)C(=O)CN(C)C(=O)CN(C)C(=O)CN(C)C(=O)CN(C)C(=O)CN(C)C(=O)CN(C)C(=O)CN(C)C(=O)CN(C)C(=O)CN(C)C(=O)CN(C)C(=O)CN(C)C(=O)CN(C)C(=O)CN(C)C(=O)CN(C)C(=O)CC[C@H](NC(=O)CC[C@H](NC(=O)CC[C@H](NC(=O)CCCCCCCCCCCCCCCCCCC(=O)O)C(=O)O)C(=O)O)C(=O)O)CC1)C(=O)N[C@@H](CCCNC(=N)N)C(=O)N(C)[C@@H](C)C(=O)N[C@@H](CCCNC(=N)N)C(=O)NCC(N)=O
B6: C18DA-gGlu3-Sar15-AEPipAc-Tyr-Phe-NMeLeu-Nle-Arg-NMeAla-Arg-Gly-NH2 (peptide)
peptide: EEEXXXXXXXXXXXXXXXXYFLXRARG
HELM: PEPTIDE1{[O=C(O)CCCCCCCCCCCCCCCCC(=O)[*:2]].[gGlu].[gGlu].[gGlu].[Sar].[Sar].[Sar].[Sar].[Sar].[Sar].[Sar].[Sar].[Sar].[Sar].[Sar].[Sar].[Sar].[Sar].[Sar].[O=C(CN1CCN(CCN[*:1])CC1)[*:2]].Y.F.[meL].[Nle].R.[meA].R.G.[am]}$$$$V2.0
SMILES: CCCC[C@H](NC(=O)[C@H](CC(C)C)N(C)C(=O)[C@H](Cc1ccccc1)NC(=O)[C@H](Cc1ccc(O)cc1)NC(=O)CN1CCN(CCNC(=O)CN(C)C(=O)CN(C)C(=O)CN(C)C(=O)CN(C)C(=O)CN(C)C(=O)CN(C)C(=O)CN(C)C(=O)CN(C)C(=O)CN(C)C(=O)CN(C)C(=O)CN(C)C(=O)CN(C)C(=O)CN(C)C(=O)CN(C)C(=O)CN(C)C(=O)CC[C@H](NC(=O)CC[C@H](NC(=O)CC[C@H](NC(=O)CCCCCCCCCCCCCCCCC(=O)O)C(=O)O)C(=O)O)C(=O)O)CC1)C(=O)N[C@@H](CCCNC(=N)N)C(=O)N(C)[C@@H](C)C(=O)N[C@@H](CCCNC(=N)N)C(=O)NCC(N)=O
B7: C18DA-gGlu3-Sar12-AEPipAc-Tyr-Phe-NMeLeu-Nle-Arg-NMeAla-Arg-Gly-NH2 (peptide)
peptide: EEEXXXXXXXXXXXXXYFLXRARG
HELM: PEPTIDE1{[O=C(O)CCCCCCCCCCCCCCCCC(=O)[*:2]].[gGlu].[gGlu].[gGlu].[Sar].[Sar].[Sar].[Sar].[Sar].[Sar].[Sar].[Sar].[Sar].[Sar].[Sar].[Sar].[O=C(CN1CCN(CCN[*:1])CC1)[*:2]].Y.F.[meL].[Nle].R.[meA].R.G.[am]}$$$$V2.0
SMILES: CCCC[C@H](NC(=O)[C@H](CC(C)C)N(C)C(=O)[C@H](Cc1ccccc1)NC(=O)[C@H](Cc1ccc(O)cc1)NC(=O)CN1CCN(CCNC(=O)CN(C)C(=O)CN(C)C(=O)CN(C)C(=O)CN(C)C(=O)CN(C)C(=O)CN(C)C(=O)CN(C)C(=O)CN(C)C(=O)CN(C)C(=O)CN(C)C(=O)CN(C)C(=O)CN(C)C(=O)CC[C@H](NC(=O)CC[C@H](NC(=O)CC[C@H](NC(=O)CCCCCCCCCCCCCCCCC(=O)O)C(=O)O)C(=O)O)C(=O)O)CC1)C(=O)N[C@@H](CCCNC(=N)N)C(=O)N(C)[C@@H](C)C(=O)N[C@@H](CCCNC(=N)N)C(=O)NCC(N)=O
B8: C18DA-gGlu3-Sar12-AEPipAc-Tyr-Phe-NMeLeu-Nle-Orn-NMeAla-Arg-Gly-NH2 (peptide)
peptide: EEEXXXXXXXXXXXXXYFLXXARG
HELM: PEPTIDE1{[O=C(O)CCCCCCCCCCCCCCCCC(=O)[*:2]].[gGlu].[gGlu].[gGlu].[Sar].[Sar].[Sar].[Sar].[Sar].[Sar].[Sar].[Sar].[Sar].[Sar].[Sar].[Sar].[O=C(CN1CCN(CCN[*:1])CC1)[*:2]].Y.F.[meL].[Nle].[Orn].[meA].R.G.[am]}$$$$V2.0
SMILES: CCCC[C@H](NC(=O)[C@H](CC(C)C)N(C)C(=O)[C@H](Cc1ccccc1)NC(=O)[C@H](Cc1ccc(O)cc1)NC(=O)CN1CCN(CCNC(=O)CN(C)C(=O)CN(C)C(=O)CN(C)C(=O)CN(C)C(=O)CN(C)C(=O)CN(C)C(=O)CN(C)C(=O)CN(C)C(=O)CN(C)C(=O)CN(C)C(=O)CN(C)C(=O)CN(C)C(=O)CC[C@H](NC(=O)CC[C@H](NC(=O)CC[C@H](NC(=O)CCCCCCCCCCCCCCCCC(=O)O)C(=O)O)C(=O)O)C(=O)O)CC1)C(=O)N[C@@H](CCCN)C(=O)N(C)[C@@H](C)C(=O)N[C@@H](CCCNC(=N)N)C(=O)NCC(N)=O

What follows are binders tested against T1, human neuromedin U receptor 1 (assay: cell-based or functional assay).

Compared with B1, B2 is 5.1-fold higher in EC50 (hNMUR1) buffer: 130 nM for the first, 660 nM for the second.

First: B3
Second: B4
The EC50 (hNMUR1) buffer of the first is 4.5-fold higher: 1000 nM for the first, 220 nM for the second.

First: B5
Second: B6
The EC50 (hNMUR1) buffer of the first is 1.5-fold lower: 720 nM for the first, 1100 nM for the second.

Going from B7 to B8, the EC50 (hNMUR1) buffer rises from 1000 nM to > 1000 nM.
